Sequences and labels used below:
B1: gC1qR, wild type, mature recombinant (receptor for the globular heads of C1q) (receptor, UniProt Q07021 74-282, looked up)
chain: LHTDGDKAFVDFLSDEIKEERKIQKHKTLPKMSGGWELELNGTEAKLVRKVAGEKITVTFNINNSIPPTFDGEEEPSQGQKVEEQEPELTSTPNFVVEVIKNDDGKKALVLDCHYPEDEVGQEDEAESDIFSIREVSFQSTGESEWKDTNYTLNTDSLDWALYDHLMDFLADRGVDNTFADELVELSTALEHQEYITFLEDLKSFVKSQ
modifications: biotin (biotinylated gC1qR in the ELISA; not said for the SPR surface)
notes: also called gC1qR-WT; biotinylated gC1qR

The target of experiment [1] is T1, SARS-CoV-2 nucleocapsid (N) protein, recombinant (SARS-CoV-2, UniProt P0DTC9 1-419).
T1 construct: also called Nucleocapsid protein
Put plainly: SPR; gC1qR-WT or gC1qR-ΔΔ immobilised; two-fold dilution series of analyte injected; reference-corrected sensorgrams fit to kinetic models; apparent KD. The note with it: both partners purified. For orientation: Surface plasmon resonance follows binding to a sensor surface in real time, without labels.

The target in experiment [2] is B1. The experiment is described as above. The note with it: both partners purified.

As for B1, the Kd in experiment [1] was 6 µM. For the molecule HKHGHGHGKHKNKGKKNGKH [synthetic peptide corresponding to the gC1qR-binding region from HK], in experiment [2], the Kd amounted to 2000 µM.
